Assay [1] has as its target T1, OPOx (pyranose oxidase from Oscillatoria princeps) (Oscillatoria princeps, UniProt A0ABF7PQA8).
T1 construct: full length, 534 residues (533 also printed), N-terminal His-tag, pBAD vector, E. coli NEB 10-beta; synthetic codon-optimised gene; 61 kDa with tag; homotetramer
T1 sequence (A0ABF7PQA8 1-533): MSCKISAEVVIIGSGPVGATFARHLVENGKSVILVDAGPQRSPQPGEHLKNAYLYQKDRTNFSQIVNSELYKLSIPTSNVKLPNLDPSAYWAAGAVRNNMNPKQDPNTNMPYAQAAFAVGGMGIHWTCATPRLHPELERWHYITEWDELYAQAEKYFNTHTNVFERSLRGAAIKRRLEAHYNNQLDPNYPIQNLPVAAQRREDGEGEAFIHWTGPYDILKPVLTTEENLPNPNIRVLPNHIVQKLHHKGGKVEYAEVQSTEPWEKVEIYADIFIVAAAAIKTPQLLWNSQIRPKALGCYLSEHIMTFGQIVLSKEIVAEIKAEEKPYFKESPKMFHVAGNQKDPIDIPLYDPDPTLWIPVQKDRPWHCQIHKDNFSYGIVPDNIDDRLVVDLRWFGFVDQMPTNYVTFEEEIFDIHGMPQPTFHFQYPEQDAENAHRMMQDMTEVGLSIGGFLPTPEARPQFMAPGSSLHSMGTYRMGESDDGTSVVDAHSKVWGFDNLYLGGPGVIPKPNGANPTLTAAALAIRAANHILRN
Kind of assay: X-ray crystal structure, […] Å. Type of assay: binding. Conditions: covalent; 8α-methyl of FAD bound to His125 NE2; crystals at pH 9.2.

For assay [2], the target named is pyranose oxidase from Oscillatoria princeps (OPOx) (Oscillatoria princeps). Kind of assay: crystal structure; X-ray, 2.64 Å, space group P2(1)2(1)2(1), tetramer in the asymmetric unit; crystals with sodium sulfate as additive at pH 9.2. A low-resolution C222(1) crystal form has a dimer in the asymmetric unit and forms the tetramer through a crystallographic two-fold axis.

Assay [3] shares this target. The assay is described as follows: dynamic light scattering + SEC; DLS: about 15 μM OPOx in 50 mM citrate buffer (pH 5.5), 294 K; gel permeation chromatography (Fig. S3).

`Cc1cc2nc3c(=O)[nH]c(=O)nc-3n(C[C@H](O)[C@H](O)[C@H](O)COP(=O)(O)OP(=O)(O)OC[C@H]3O[C@@H](n4cnc5c(N)ncnc54)[C@H](O)[C@@H]3O)c2cc1C` [FAD]: the “X-ray crystal structure, 2.64 Å” value in assay [1] was “crystal structure of OPOx with a covalently bound FAD cofactor per subunit”.

With “pyranose oxidase from Oscillatoria princeps (OPOx) (enzyme)”, the stoichiometry N in assay [2] and in assay [3] was 4 in each case.

For the origin of these results see PMC11650716, “Identification of a robust bacterial pyranose oxidase that displays an unusual pH dependence” (The Journal of Biological Chemistry, 2024).
